{
  "source": "paper PMC2880790",
  "about": "“Solution Structure and Characterisation of the Human Pyruvate Dehydrogenase Complex Core Assembly” (Journal of Molecular Biology, 2010)",
  "key": {"[1]": {"target": "the molecule itself", "assay": "AUC; sedimentation velocity of the cores; 76-306 nM rE2/E3BP, 60-260 nM rE2, 116-730 nM tE2/E3BP; PEBS100 buffer (2 mM EDTA, 100 mM NaCl, 50 mM KH2PO4, pH 7.5); 20,000 rpm, 4 °C; interference optics"}, "[2]": {"target": "T1, bovine heart E2 of the native bovine PDC core (bE2/E3BP) (bovine, UniProt P11180 87-647)", "T1 construct": "E2 (dihydrolipoamide acetyltransferase) of bovine heart pyruvate dehydrogenase complex, native; also called E2 of bE2/E3BP; source: purified from bovine heart PDC (sucrose gradients in 2 M NaCl), as bE2/E3BP core", "T1 sequence (looked up)": "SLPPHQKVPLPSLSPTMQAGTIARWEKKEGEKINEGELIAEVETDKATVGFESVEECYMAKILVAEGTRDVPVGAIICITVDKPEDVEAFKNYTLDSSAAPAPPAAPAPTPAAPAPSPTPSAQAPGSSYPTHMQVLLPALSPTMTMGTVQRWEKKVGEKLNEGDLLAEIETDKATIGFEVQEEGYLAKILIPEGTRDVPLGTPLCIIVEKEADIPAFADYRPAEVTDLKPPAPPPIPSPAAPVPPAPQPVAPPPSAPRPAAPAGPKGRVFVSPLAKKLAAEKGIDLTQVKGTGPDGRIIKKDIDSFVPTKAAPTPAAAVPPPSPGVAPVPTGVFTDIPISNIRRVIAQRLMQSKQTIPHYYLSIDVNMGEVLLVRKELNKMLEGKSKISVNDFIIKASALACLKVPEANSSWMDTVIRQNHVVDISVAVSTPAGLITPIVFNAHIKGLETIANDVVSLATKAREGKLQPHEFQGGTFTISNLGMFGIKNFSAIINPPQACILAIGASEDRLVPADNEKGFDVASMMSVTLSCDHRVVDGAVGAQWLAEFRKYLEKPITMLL", "assay": "SAXS; beamline X33 EMBL/DESY; PEBS100 buffer; 830.9 nM rE2/E3BP and 183.1 nM bE2/E3BP used for ab initio modelling (GASBOR, icosahedral symmetry)", "conditions": "both partners purified"}},
  "data": [
    {"binder": "recombinant full-length E2-only PDC core (rE2); dihydrolipoamide acetyltransferase of human pyruvate dehydrogenase complex (enzyme, UniProt P10515 87-647, looked up, E2 (dihydrolipoamide acetyltransferase) of the human pyruvate dehydrogenase complex, full-length recombinant; monomer printed as 61 kDa; 60-mer mass from composition 3,741,780 Da; Cultures were supplemented with lipoic acid on induction; source: E. coli BL21 star (DE3), pET14b, purified (zinc chelate, anion exchange, gel filtration); not shown: His tag, N-terminal, kept; copies: 60) SLPPHQKVPLPSLSPTMQAGTIARWEKKEGDKINEGDLIAEVETDKATVGFESLEECYMAKILVAEGTRDVPIGAIICITVGKPEDIEAFKNYTLDSSAAPTPQAAPAPTPAATASPPTPSAQAPGSSYPPHMQVLLPALSPTMTMGTVQRWEKKVGEKLSEGDLLAEIETDKATIGFEVQEEGYLAKILVPEGTRDVPLGTPLCIIVEKEADISAFADYRPTEVTDLKPQVPPPTPPPVAAVPPTPQPLAPTPSAPCPATPAGPKGRVFVSPLAKKLAVEKGIDLTQVKGTGPDGRITKKDIDSFVPSKVAPAPAAVVPPTGPGMAPVPTGVFTDIPISNIRRVIAQRLMQSKQTIPHYYLSIDVNMGEVLLVRKELNKILEGRSKISVNDFIIKASALACLKVPEANSSWMDTVIRQNHVVDVSVAVSTPAGLITPIVFNAHIKGVETIANDVVSLATKAREGKLQPHEFQGGTFTISNLGMFGIKNFSAIINPPQACILAIGASEDKLVPADNEKGFDVASMMSVTLSCDHRVVDGAVGAQWLAEFRKYLEKPITMLL", "values": [
      {"measurement": "stoichiometry N", "setting": "[1]", "value": 60}
    ]},
    {"binder": "bovine heart E3BP of the native bovine PDC core (bE2/E3BP) (natural protein, UniProt P22439 54-501, looked up, also called E3BP of bE2/E3BP; source: purified from bovine heart PDC (sucrose gradients in 2 M NaCl), as bE2/E3BP core) ADPIKILMPSLSPTMEEGNIVKWLKKEGEAVSAGDALCEIETDKAVVTLDASDDGILAKIVVAEGSKNIRLGSLIGLLVEEGEDWKHVEIPKDTGPPPPAAKPSVPPPSAEPQIATPVKKEHPPGKVQFRLSPAARNILEKHALDANQGTATGPRGIFTKEDALKLVQLKQTGKITEPRPTAALPTTPAAPLPPQAAATASYPRPMIPPVSTPGQPNVEGTFTEIPASNIRRVIAKRLTESKSTIPHAYATTDCDLGAVLTARQNLVRDDIKVSVNDFIIKAAAVTLKQMPNVNASWDGEGAKQLPSIDISVAVATDRGLITPVIKDAAAKGLQEIADSVKALSKKARDGKLLPEEYQGGSFSISNLGMFGIDEFTAVINPPQACILAVGRFRPVLKLTQDEEGNAQLQQRQLITVTMSSDSRVVDDELATRFLESFKANLENPLRLA", "values": [
      {"measurement": "binding result", "setting": "[2]", "value": "binds"}
    ]}
  ]
}
